Measurements: US20250051467A1 (JIANGSU HENGRUI PHARMACEUTICALS, published 2025)

Key:
[1] = biological target: T1, human FAP on CHO cells (human, UniProt Q12884 1-760); assay: FACS, CHO cells overexpressing human FAP
T1 construct: whole, on cells; also called CHO cell line overexpressing human FAP; CHOK1/FAP
Description: (§1) A FACS assay was used to measure the binding properties of anti-FAP antibodies on cells. The assay comprises the following steps: A CHO cell line overexpressing human FAP was constructed and plated (1E5/well). The test antibodies were added at 100 μL/well. The highest concentration was 100 nM. A 5-fold dilution was performed, yielding 8 concentrations in total. The plate was incubated at 4° C. for 1 h. Anti-hIgG Alexa Fluor-647 was added as a secondary antibody in the ratio of 1:500. The plate was incubated at 4° C. for 30 min, and a FACS assay was performed. Antibodies that bind to FAP can mark cells. The relation between the percentage of the marked cells that over-express human FAP among all cells and the antibody concentration is shown in FIG. 1. The relation between the percentage of the marked cells that over-express mouse FAP among all cells and the antibody concentration is shown in FIG. 2.

[2] = biological target: T2, h-FAP-His (human, UniProt Q12884 26-760); assay: SPR, antibody captured by anti-human IgG Fc, h-FAP-His analyte
T2 construct: range 26-760; Bought recombinant protein with a His tag; also called human FAP-His protein; FAP recombinant protein with a His tag
Description: (§2) A CM5 sensor chip was used, and HBS-EP+buffer solution (10 mM HEPES, 150 mM NaCl, 3 mM EDTA, 0.05% surfactant P20) was used as the mobile phase. An anti-human IgG (Fc) antibody was made into a […] solution in a 10 mM sodium acetate buffer solution (pH 5.0) and immobilized by amino coupling. The test antibodies were diluted in HBS-EP+buffer solution and captured by the anti-human IgG (Fc) antibody on chip channels. h-FAP-His was dissolved in HBS-EP+buffer solution to prepare an analyte, and the analyte was serially diluted 2-fold. The diluted antibodies were passed through the experimental and reference channels at a flow rate of […], with 1 min of binding and 15 min of disassociation. 10 mM Glycine pH 1.5 was passed as a regeneration buffer solution for 30 s at a flow rate of […]. Data were analyzed. […] However, the binding affinities of the other anti-FAP antibodies obtained by screening at the same time in the present disclosure, such as Ab2, Ab4 and Ab5 (sequences not shown), for the antigen are lower than that of 28H1.

[3] = biological target: T3, mouse FAP on CHOK1 cells (mouse, UniProt P97321 1-761); assay: FACS, percent of marked cells overexpressing mouse FAP, anti-hIgG Alexa Fluor-647 secondary antibody
T3 construct: whole, on cells; also called cell surface mouse FAP
Description: as §1

[4] = biological target: T2, h-FAP-His; assay: ELISA, human FAP-His coated
Description: A FAP recombinant protein with a His tag was directly used for coating. After the antibodies were added, a secondary antibody (an HRP-conjugated anti-human IgG antibody) and the HRP substrate TMB were added to measure the binding activity of the antibodies to the antigen. The assay comprises the following steps: A […] solution of human FAP-His protein was used to coat a 96-well microplate at 100 μL/well, and the plate was incubated overnight at 4° C. After a thorough wash, a blocking solution was added at 200 μL/well, and the plate was incubated at room temperature for 2 h. After a thorough wash, dilutions of test anti-FAP antibodies were added at 100 μL/well. The plate was incubated at room temperature for 1 h. After a thorough wash, a 1:20,000 dilution of an HRP-labeled goat anti-human IgG secondary antibody was added at 100 μL/well. The plate was incubated at room temperature for 1 h. After a thorough wash, TMB was added at 100 μL/well, and the plate was incubated in the dark for 15 min. 0.16 M sulfuric acid was added at 50 μL/well. The OD value at 450 nm was measured on a Thermo MultiSkanFc microplate reader, and the binding EC₅₀ values of the anti-FAP antibodies were calculated.

[5] = biological target: T1, human FAP on CHO cells; assay: FACS, CHOK1 cells stably expressing human FAP
Description: (§3) In this experiment, the binding of the anti-FAP/CD40 bispecific antibodies to stably transfected strains of CHOK1 cells that highly express human FAP, cynomolgus monkey FAP and mouse FAP was measured by FACS.

[6] = biological target: T3, mouse FAP on CHOK1 cells; assay: FACS, CHOK1 cells stably expressing mouse FAP
Description: as §3

[7] = biological target: T4, cynomolgus monkey FAP on CHOK1 cells (cynomolgus monkey); assay: FACS, CHOK1 cells stably expressing cynomolgus monkey FAP
T4 construct: whole, on cells
Description: as §3

[8] = biological target: T5, human FAP protein (Acro, FAP-H5244) (human, UniProt Q12884 26-760); assay: SPR (Biacore 8K), antibody captured by anti-human IgG Fc, human FAP analyte
T5 construct: Bought protein
Description: (§4) The affinities of the anti-FAP/CD40 bispecific antibodies for their antigens, the human FAP protein (Acro, FAP-H5244) and the human CD40 protein (Acro, CD0-H5228), were measured by SPR (GE Healthcare; Biacore 8K). A CM5 sensor chip was used, and HBS-EP+buffer solution (10 mM HEPES, 150 mM NaCl, 3 mM EDTA, 0.05% surfactant P20) was used as the mobile phase. An anti-human IgG (Fc) antibody was immobilized by amino coupling. The test antibodies were separately diluted in HBS-EP+buffer solution as ligands and captured by the anti-human IgG (Fc) antibody on chip channels. Antigenic proteins of different species were used as analytes.

[9] = biological target: T2, h-FAP-His; assay: SPR, h-FAP-His analyte; lower end tied to Ab14 by Table 6
Description: as §2

[10] = biological target: T6, human CD40 on cells (Raji cells; HEK-Blue CD40L cells; human dendritic cells) (human, UniProt P25942 21-277); assay: FACS, HEK-Blue CD40L cells expressing human CD40
T6 construct: whole, on cells; One entry for untagged full-length human CD40 on cells; also called Raji cell surface human CD40; human cell surface CD40 antigen
Description: (§5) The binding of the bispecific antibodies to cell surface CD40 was measured by FACS, including HEK-Blue™CD40L cells highly expressing human CD40 (Invivogen, Cat #hkb-cd40), and HEK293 cells that were transiently transfected with cynomolgus monkey CD40 plasmids (Sino Biological, cat #CG90970-UT) and thus made to highly express cynomolgus monkey CD40. […] See FIGS. 9A, 9B and 11 and Table 21 for details.

[11] = biological target: T6, human CD40 on cells (Raji cells; …); assay: flow cytometry on immature human dendritic cells (CD40)
[12] = biological target: T7, cynomolgus monkey CD40 on HEK293 cells (cynomolgus monkey, UniProt G7PG38 21-278); assay: FACS, HEK293 cells transiently expressing cynomolgus monkey CD40
T7 construct: whole, on cells
Description: as §5

[13] = biological target: T8, h-CD40-His (human, UniProt P25942 21-193); assay: SPR (Biacore 8K), antibody captured by anti-human IgG Fc, human CD40 analyte
T8 construct: range 21-193; Bought His-tagged recombinant protein; also called human CD40 protein (Acro, CD0-H5228); human CD40
Description: as §4

T6 sequence (P25942 21-277): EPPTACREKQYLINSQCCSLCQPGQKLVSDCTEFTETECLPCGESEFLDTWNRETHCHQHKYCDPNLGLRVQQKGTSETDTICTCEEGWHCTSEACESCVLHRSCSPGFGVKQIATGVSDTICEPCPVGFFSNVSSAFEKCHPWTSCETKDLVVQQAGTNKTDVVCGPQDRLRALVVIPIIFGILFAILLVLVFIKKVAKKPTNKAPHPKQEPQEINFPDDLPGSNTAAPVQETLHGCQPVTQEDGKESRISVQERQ
T8 sequence (P25942 21-193 limits assumed): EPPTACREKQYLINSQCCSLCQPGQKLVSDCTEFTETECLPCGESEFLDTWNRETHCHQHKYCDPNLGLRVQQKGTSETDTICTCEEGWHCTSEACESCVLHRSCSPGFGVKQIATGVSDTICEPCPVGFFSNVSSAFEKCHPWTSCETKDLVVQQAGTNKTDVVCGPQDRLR
T3 sequence (P97321 whole entry): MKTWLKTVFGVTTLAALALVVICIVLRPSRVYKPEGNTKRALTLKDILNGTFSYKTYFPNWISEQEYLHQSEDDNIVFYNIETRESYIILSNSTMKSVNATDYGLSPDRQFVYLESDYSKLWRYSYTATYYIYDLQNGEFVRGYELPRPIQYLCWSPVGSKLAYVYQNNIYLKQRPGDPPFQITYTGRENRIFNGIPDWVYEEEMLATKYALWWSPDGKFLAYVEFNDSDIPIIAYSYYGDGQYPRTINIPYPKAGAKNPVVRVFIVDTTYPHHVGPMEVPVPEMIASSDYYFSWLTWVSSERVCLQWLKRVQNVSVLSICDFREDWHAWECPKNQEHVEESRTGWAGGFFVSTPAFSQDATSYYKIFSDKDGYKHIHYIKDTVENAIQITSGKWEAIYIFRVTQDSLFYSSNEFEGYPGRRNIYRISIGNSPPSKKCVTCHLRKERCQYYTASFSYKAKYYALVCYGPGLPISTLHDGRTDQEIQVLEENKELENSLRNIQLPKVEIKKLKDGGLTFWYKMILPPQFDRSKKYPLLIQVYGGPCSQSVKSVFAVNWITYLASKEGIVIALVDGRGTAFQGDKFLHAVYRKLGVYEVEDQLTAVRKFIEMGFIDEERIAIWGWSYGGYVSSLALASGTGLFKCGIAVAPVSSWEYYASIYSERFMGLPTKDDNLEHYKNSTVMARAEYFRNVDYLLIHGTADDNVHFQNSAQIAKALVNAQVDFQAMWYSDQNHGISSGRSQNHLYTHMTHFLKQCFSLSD

| Binder | EC50 [1] [ng/mL] | Kd [2] [nM] | Ratio of KD of 28H1 to KD of test antibody [2] | Ratio of Kd of 28H1 to Kd of test antibody [2] | koff [2] [s⁻¹] | kon [2] [M⁻¹ s⁻¹] | EC50 (read off the curve) [3] [ng/mL] | EC50 [4] [ng/mL] | EC50 [5] [nM] | Emax (MFI) [5] [MFI] | EC50 [6] [nM] | Emax (MFI) [6] [MFI] | EC50 [7] [nM] | Emax (MFI) [7] [MFI] | Kd [8] [nM] | koff [8] [s⁻¹] | kon [8] [M⁻¹ s⁻¹] | EC50 [10] [nM] | Emax (MFI) [10] [MFI] | EC50 (read off the curve) [11] [nM] | further results |
| --- | --- | --- | --- | --- | --- | --- | --- | --- | --- | --- | --- | --- | --- | --- | --- | --- | --- | --- | --- | --- | --- |
| 28H1 (antibody, V domains shown, also called control anti-FAP antibody 28H1) VH: EVQLLESGGGLVQPGGSLRLSCAASGFTFSSHAMSWVRQAPGKGLEWVSAIWASGEQYYADSVKGRFTISRDNSKNTLYLQMNSLRAEDTAVYYCAKGWLGNFDYWGQGTLVTVSS VL: EIVLTQSPGTLSLSPGERATLSCRASQSVSRSYLAWYQQKPGQAPRLLIIGASTRATGIPDRFSGSGSGTDFTLTISRLEPEDFAVYYCQQGQVIPPTFGQGTKVEIK | 0.784 | 1.31 | 1 | 1 | 0.000255 | 195000 | ~1 |  |  |  |  |  |  |  |  |  |  |  |  |  |  |
| Ab9 (antibody, human IgG1, kappa, L234A L235A, V domains shown, Fully human, IgG1 / kappa; also called anti-FAP antibody Ab9) VH: QMQLVQSGAEVKKPGASVTVSCRASGYSFADHFIHWVRQAPGQGFQWMGWINPNRGVTHHAQDFQGRVAMTRDMSTDTVYMELTSLRSDDTAVYYCARDESLTARPYYFYGFDVWGQGTLVTVSS VL: DIQMTQSPSSVSASVGDRVTITCRASQGISSWLAWYQQKPGKAPKLLIYAASSLQSGVPSRFSGSGSGTDFTLTISSLQPEDFATYYCQQANSFPPAFGQGTKVEIKR | 0.368 | 0.306 | 4.3 | 3.54 | 7.19e-05 | 235000 | ~5 | 101000 |  |  |  |  |  |  |  |  |  |  |  |  |  |
| Ab10 (antibody, human IgG1, kappa, L234A L235A, V domains shown, Fully human, IgG1 / kappa; also called anti-FAP antibody Ab10; Ab110) VH: QVQLQQSGVEVKKPGASVTVSCRASGYSFADHFIHWVRQAPGQGFQWMGWINPNRGVTHHAQDFQGRVAMTRDMSTDTVYMELTSLRSDDTAVYYCARDASLTARPYYFYGFDVWGQGTLVTVSS VL: DIQMTQSPSSVSASVGDRVTITCRASQGISSWLAWYQQKPGKAPKLLIYAASSLQSGVPSRFSGSGSGTDFTLTISSLQPEDFATYYCQQANSFPPAFGQGTKVEIKR | 0.432 | 0.245 | 5.3 | 3.5 | 7.28e-05 | 297000 | ~2 | 92000 | 1.41 | 72000 | 10.4 | 26400 | 7.34 | 64600 | 0.34 | 7.39e-05 | 217000 |  |  |  |  |

The next lines start with results.

| EC50 [1] [ng/mL] | Kd [2] [nM] | Ratio of KD of 28H1 to KD of test antibody [2] | Ratio of Kd of 28H1 to Kd of test antibody [2] | koff [2] [s⁻¹] | kon [2] [M⁻¹ s⁻¹] | EC50 (read off the curve) [3] [ng/mL] | EC50 [4] [ng/mL] | EC50 [5] [nM] | Emax (MFI) [5] [MFI] | EC50 [6] [nM] | Emax (MFI) [6] [MFI] | EC50 [7] [nM] | Emax (MFI) [7] [MFI] | Kd [8] [nM] | koff [8] [s⁻¹] | kon [8] [M⁻¹ s⁻¹] | EC50 [10] [nM] | Emax (MFI) [10] [MFI] | EC50 (read off the curve) [11] [nM] | Binder | further results |
| --- | --- | --- | --- | --- | --- | --- | --- | --- | --- | --- | --- | --- | --- | --- | --- | --- | --- | --- | --- | --- | --- |
| 0.474 | 0.365 | 3.6 | 2.1 | 0.000121 | 332000 | ~8 | 417000 |  |  |  |  |  |  |  |  |  |  |  |  | Ab14 (antibody, human IgG1, kappa, L234A L235A, V domains shown, Fully human, IgG1 / kappa; also called anti-FAP antibody Ab14; Ab114) VH: QVQLQQSGVEVKKPGASVTVSCRASGYSFADHFIHWVRQAPGQGFQWMGWINPNRGVTHHAQDFQGRVAMTRDMSTDTVYMELTSLRSDDTAVYYCARDASLTARPYYFYGFDVWGQGTLVTVSS VL: EIVLTQSPSSVSASVGDRVTITCRASQGISSWLAWYQQKPGKAPKLLIYAASSLQSGVPSRFSGSGSGTDFTLTISSLQPEDFATYYCQQANSFPLTFGGGTKVEIKR | fold affinity over 28H1 [9]: 3 to 6 times |
|  |  |  |  |  |  |  |  | 2.51 | 65200 | 0.79 | 12600 | 1.09 | 28200 | 0.405 | 8.22e-05 | 203000 | 1.66 | 6250 | ~4 | Ab10-A297V3-2 (bispecific antibody, human IgG1, kappa, L234A L235A, Ab10 IgG1 (L234A/L235A) with one A297V3 VHH on each heavy chain C-terminus; divalent for CD40; also called Ab0-A297V3-2) heavy: not shown light: DIQMTQSPSSVSASVGDRVTITCRASQGISSWLAWYQQKPGKAPKLLIYAASSLQSGVPSRFSGSGSGTDFTLTISSLQPEDFATYYCQQANSFPPAFGQGTKVEIKRTVAAPSVFIFPPSDEQLKSGTASVVCLLNNFYPREAKVQWKVDNALQSGNSQESVTEQDSKDSTYSLSSTLTLSKADYEKHKVYACEVTHQGLSSPVTKSFNRGEC | EC50 [12]: 1.31 nM; Emax (MFI) [12]: 4930 MFI; Kd [13]: 141 nM; koff [13]: 0.0294 s⁻¹; kon [13]: 209000 M⁻¹ s⁻¹ |
|  |  |  |  |  |  |  |  | 1.57 | 53800 | 1.65 | 12700 | 1.35 | 32500 | 0.378 | 6.96e-05 | 184000 | 0.94 | 5080 | ~1 | Ab10-A297V3-4 (bispecific antibody, human IgG1, kappa, L234A L235A, Ab10 IgG1 (L234A/L235A) with two A297V3 VHHs in tandem on each heavy chain C-terminus; tetravalent for CD40; also called Ab0-A297V3-4) heavy: not shown light: DIQMTQSPSSVSASVGDRVTITCRASQGISSWLAWYQQKPGKAPKLLIYAASSLQSGVPSRFSGSGSGTDFTLTISSLQPEDFATYYCQQANSFPPAFGQGTKVEIKRTVAAPSVFIFPPSDEQLKSGTASVVCLLNNFYPREAKVQWKVDNALQSGNSQESVTEQDSKDSTYSLSSTLTLSKADYEKHKVYACEVTHQGLSSPVTKSFNRGEC | EC50 [12]: 0.88 nM; Emax (MFI) [12]: 5120 MFI; Kd [13]: 262 nM; koff [13]: 0.137 s⁻¹; kon [13]: 524000 M⁻¹ s⁻¹ |
